From patent publication US20180030127A1 (APRILBIO, published 2018)

Experiments:
[1] = target: T1, human serum albumin (human, UniProt P02768 25-609); test: ELISA, purified soluble Fab, pH 6
T1 construct: Bought protein; also called HSA; human SA
Experimental: (§1) For the monoclonal phage ELISA, the recombinant phage was obtained from positive E. coli clones by phage rescue, and ˜10⁸ CFU/well were added to MaxiSorb ELISA plates (Nunc, Roskilde, Denmark) that were coated with 5 μg/ml HSA, RSA, MSA or BSA. The phage was allowed to bind to the antigens either at pH 6 or at pH 7.4 for 1 h at 37° C. A goat anti-human kappa L Ab-conjugated with HRPO (Sigma-Aldrich) was used as a secondary antibody. The binding signals were visualized with a TMB substrate (BD Science, San Jose, Calif., USA), and the absorbance at 450 nm was measured using an ELISA reader (Bio-Rad, Hercules, Calif., USA). The data represent the average of three experiments standard deviation. For the conventional ELISA, the various antigens [human SA, rat SA, mouse SA, monkey SA (Alpha diagnositic Intl., San Antonio, Tex., USA), canine SA (CUSABIO, Wuhan, Hubei, China). rabbit SA (Sigma-Aldrich), epidermal growth factor receptor (EGFR) (R&D systems, Minneapolis, Minn., USA), epithelial cell adhesion molecule (EpCAM) (R&D systems), IL-15 receptor a (IL-15Ra) (R&D systems), IL-10 (eBioscience, San Diego, Calif., USA), CD16a (R&D systems), c-MET (Sinobiological, Beijing, China)] at 5 μg/ml concentrations were immobilized on the microtiter plates, and the Fab molecules were allowed to bind to the antigens, and detected as above. […]

[2] = target: T1, human serum albumin; test: ELISA, purified soluble Fab, pH 7.4
Experimental: as §1

[3] = target: T1, human serum albumin; test: ELISA, purified soluble Fab on coated HSA
[4] = target: T2, cynomolgus monkey serum albumin (cynomolgus monkey, UniProt A2V9Z4 25-608); test: ELISA, soluble Fab, antigen coated at 5 µg/ml
T2 construct: also called cynomolgus monkey SA; monkey SA
T2 sequence (A2V9Z4 25-608 limits assumed): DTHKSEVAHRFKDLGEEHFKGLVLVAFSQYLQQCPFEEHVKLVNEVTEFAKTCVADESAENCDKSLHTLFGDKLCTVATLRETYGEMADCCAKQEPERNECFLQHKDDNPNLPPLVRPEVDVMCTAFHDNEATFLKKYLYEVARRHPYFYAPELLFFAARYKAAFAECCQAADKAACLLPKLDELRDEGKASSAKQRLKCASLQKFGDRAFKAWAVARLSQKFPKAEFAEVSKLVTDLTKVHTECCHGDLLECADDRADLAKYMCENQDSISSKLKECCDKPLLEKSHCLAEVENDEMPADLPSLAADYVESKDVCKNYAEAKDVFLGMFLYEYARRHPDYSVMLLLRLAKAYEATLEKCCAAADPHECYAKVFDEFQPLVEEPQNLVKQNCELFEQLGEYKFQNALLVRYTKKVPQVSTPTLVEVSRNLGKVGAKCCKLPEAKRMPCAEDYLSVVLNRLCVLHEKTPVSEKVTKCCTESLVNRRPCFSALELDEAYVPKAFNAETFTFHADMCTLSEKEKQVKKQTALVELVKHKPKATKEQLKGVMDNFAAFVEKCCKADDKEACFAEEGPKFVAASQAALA

[5] = target: T3, epidermal growth factor receptor (UniProt P00533 25-645); test: ELISA, soluble Fab, antigen coated at 5 µg/ml
T3 construct: also called EGFR

[6] = target: T4, rat serum albumin (rat, UniProt P02770 25-608); test: ELISA, purified soluble Fab on coated RSA, pH 6; rat SA, pH 6
T4 construct: Bought protein; also called RSA; rat SA
T4 sequence (P02770 25-608 limits assumed): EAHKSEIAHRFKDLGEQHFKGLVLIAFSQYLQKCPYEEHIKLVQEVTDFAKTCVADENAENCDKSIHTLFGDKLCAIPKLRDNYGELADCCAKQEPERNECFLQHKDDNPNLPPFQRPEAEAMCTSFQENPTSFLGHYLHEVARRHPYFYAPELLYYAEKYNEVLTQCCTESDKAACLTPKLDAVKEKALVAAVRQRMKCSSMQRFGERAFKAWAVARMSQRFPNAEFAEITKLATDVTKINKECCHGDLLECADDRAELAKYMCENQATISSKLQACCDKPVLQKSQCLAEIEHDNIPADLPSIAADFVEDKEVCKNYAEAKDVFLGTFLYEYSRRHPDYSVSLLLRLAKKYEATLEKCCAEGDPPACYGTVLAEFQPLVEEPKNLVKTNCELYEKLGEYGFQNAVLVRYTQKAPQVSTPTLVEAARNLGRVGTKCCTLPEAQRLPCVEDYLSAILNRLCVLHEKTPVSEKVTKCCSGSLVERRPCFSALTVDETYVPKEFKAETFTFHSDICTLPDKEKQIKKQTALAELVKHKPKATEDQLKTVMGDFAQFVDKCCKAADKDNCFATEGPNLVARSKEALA
Experimental: as §1

[7] = target: T4, rat serum albumin; test: ELISA, purified soluble Fab on coated RSA, pH 7.4; rat SA, pH 7.4
Experimental: as §1

[8] = target: T1, human serum albumin; test: ELISA, purified soluble Fab on coated HSA, pH 7.4; human SA, pH 7.4
Experimental: as §1

[9] = target: T1, human serum albumin; test: biolayer interferometry (Octet RED), SL335 on AR2G biosensor, HSA in solution, pH 6.0
Experimental: (§2) Real-time binding assays between the purified SL335 and the antigens (human SA, rat SA or mouse SA) were performed using biolayer interferometry with an Octet RED system (ForteBio, Menlo park, Calif., USA) as previously described except that AR2G (Amine Reactive Second-Generation) sensors were used (Costin et al., (2013) J Virol. 87, 52-66). Briefly, the predetermined concentration of SL335 was coupled to kinetics grade AR2G biosensors, and unbound Fab fragments were removed from the surfaces of the sensors by incubating in the kinetics buffer […]. […] The binding and dissociation kinetics were calculated using the Octet QK software package, which fit the observed binding curves to a 1:1 binding model to calculate the association rate constants. The association and dissociation rate constants were calculated using at least three different concentrations of human SA, rat SA or mouse SA. The equilibrium dissociation constants were calculated as the kinetic dissociation rate constant divided by the kinetic association rate constant.
(§3) Since SL335 was the best binder among four anti-human SA Fab clones, its cross-reactivity was further analyzed by ELISA. […] The binding affinities of SL335 to human SA, rat SA and mouse SA at pH 6 or pH 7.4 were further measured via biolayer interferometry by passing through different concentration of the antigens on biosensors that were coated with SL335 (see Table 6 below).

[10] = target: T1, human serum albumin; test: biolayer interferometry (Octet RED), SL335 on AR2G biosensor, HSA in solution, pH 7.4
Experimental: as §2, §3

[11] = target: T4, rat serum albumin; test: biolayer interferometry (Octet RED), SL335 on AR2G biosensor, RSA in solution, pH 6.0
Experimental: as §2, §3

[12] = target: T4, rat serum albumin; test: biolayer interferometry (Octet RED), SL335 on AR2G biosensor, RSA in solution, pH 7.4
Experimental: as §2, §3

[13] = target: T5, mouse serum albumin (mouse, UniProt P07724 25-608); test: biolayer interferometry (Octet RED), SL335 on AR2G biosensor, MSA in solution, pH 6; the filing calls the data unreliable; pH 6; left out of Table 6 for lack of reliability
T5 construct: Bought protein; also called MSA; mouse SA
T5 sequence (P07724 25-608 limits assumed): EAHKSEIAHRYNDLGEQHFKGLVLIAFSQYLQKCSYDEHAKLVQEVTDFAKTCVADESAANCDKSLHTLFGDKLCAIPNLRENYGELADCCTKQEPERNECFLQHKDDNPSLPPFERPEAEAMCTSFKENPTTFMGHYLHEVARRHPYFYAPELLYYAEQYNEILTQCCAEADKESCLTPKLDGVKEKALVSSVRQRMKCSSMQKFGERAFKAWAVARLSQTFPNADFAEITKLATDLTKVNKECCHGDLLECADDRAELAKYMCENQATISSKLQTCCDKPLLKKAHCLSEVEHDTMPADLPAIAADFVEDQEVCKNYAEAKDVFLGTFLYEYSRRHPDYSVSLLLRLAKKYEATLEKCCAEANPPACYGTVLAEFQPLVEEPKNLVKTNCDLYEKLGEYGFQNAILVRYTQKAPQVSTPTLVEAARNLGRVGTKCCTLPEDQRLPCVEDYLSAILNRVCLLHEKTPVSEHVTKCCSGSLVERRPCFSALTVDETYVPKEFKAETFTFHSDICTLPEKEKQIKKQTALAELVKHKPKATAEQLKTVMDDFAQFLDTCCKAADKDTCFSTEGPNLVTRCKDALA
Experimental: as §2

B1: SL335 (Fab, V domains shown)
VH: QVQLVQSGGGPVKPGGSLRLSCAASGFMFRAYSMNWVRQAPGKGLEWVSSISSSGRYIHYADSVKGRFTISRDNAKNSLYLQMNSLRAEDTAVYYCARETVMAGKALDYWGQGTLVTVSS
VL: ELVLTQSPGTLSLSPGETATLSCRASQSVGSNLAWYQQKPGQAPRLLIYGASTGATGVPARFSGSRSGTDFTLTITSLQPEDFATYYCQQYYSFLAKTFGQGTQLEIKR
notes: Human anti-serum albumin Fab in the classic form (VH+CH1 with Cys233, VL+CLk with Cys214); tested on phage and as soluble Fab purified from E. coli; also called SL335wt; SL335 Fab
- fold stronger binding than to rat SA at pH 6 [1]: 20 fold
- fold stronger binding than to rat SA at pH 7.4 [2]: 4 fold
- fold stronger binding at pH 6 than at pH 7.4 [3]: 2 fold
- binding result [4]: binds
- binding result [5]: no binding
- EC50 [6]: 0.4 µg/mL
- EC50 [7]: 0.16 µg/mL
- EC50 [8]: 0.04 µg/mL
- Kd [9]: 8.68 nM
- koff [9]: 0.00155 s⁻¹
- kon [9]: 179000 M⁻¹ s⁻¹
- Kd [10]: 13 nM
- koff [10]: 0.00152 s⁻¹
- kon [10]: 117000 M⁻¹ s⁻¹
- Kd [11]: 122 nM
- koff [11]: 0.00576 s⁻¹
- kon [11]: 47100 M⁻¹ s⁻¹
- Kd [12]: 65.3 nM
- koff [12]: 0.00282 s⁻¹
- kon [12]: 43200 M⁻¹ s⁻¹
- Kd [13]: ~10 µM
